Measurements published in US20210403586A1, “MUTANT OF RANKL AND PHARMACEUTICAL COMPOSITION COMPRISING SAME FOR PREVENTING OR TREATING OSTEOPOROSIS” (INDUSTRY-ACADEMIC COOPERATION FOUNDATION CHOSUN UNIVERSITY, priority 2018, published 2021).

Tested on: BALB/c mice
Assay: Bone destruction by injected mtRANKL, micro-CT
Type: in vivo, mouse
Details: subcutaneous 1.0 mg/kg three times a week
Procedure: The right femur of each mouse subjected to each experiment was incised and CT imaging was performed using a Quantum GX pCT imaging system (PerkinElmer, Hopkinton, Mass., USA) located at the Korea Basic Science Institute in Gwangju. As for the X-ray source, the field of view was set to 45 mm, 90 kV and […] (voxel size, 90 μm; scanning time, 14 minutes). CT imaging was performed using a Quantum GX 3D Viewer software. After scanning, image segmentation was performed in Analyze (AnalyzeDirect, Overland Park, Kans., USA). Briefly, the legs were segmented using semi-automatic and manual tools (e.g., object extractor, area expansion, and object separator) using volume editing tools. Then, a 3D rendering of the leg was created, and bone mineral density (BMD), bone volume (BV), bone volume percentage (%), and trabecular thickness were calculated using the ROI tools.
To investigate the bone-destructive effect of mtRANKL, 4-week-old male BALB/c mice (Orient Bio) were placed in a cage capable of accommodating up to 4 animals in a light-controlled environment ([…]) and provided with autoclaved water and both whole and powdered rodent diet (Purina, St. Louis, Mo., USA). Starting from 6 weeks of age, 9 mice were randomly divided into three groups, and each group was subcutaneously injected with wild-type RANKL (Amgen, Thousand Oaks, Calif., USA), mtRANKL purified in Reference Example 2, and saline three times a week (1.0 mg/kg). The trabecular bone in femoral neck was examined by Micro-CT analysis described in Reference Example 6.

B1: mRANKL-MT3: mouse RANKL mutant: K180R, D189I, R190K, H223F, H224Y; nucleic acid SEQ ID NO: 3 (protein, UniProt O35235 158-316, looked up, variant K180R D189I R190K H223F H224Y)
chain: KPEAQPFAHLTINAASIPSGSHRVTLSSWYHIKGWAKISNMTLSNGKLRVNQDGFYYLYANICFRFYETSGSVPTDYLQLMVYVVKTSIKIPSSHNLMKGGSTKNWSGNSEFHFYSINVGGFFKLRAGEEISIQVSNPSLLDPDQDATYFGAFKVQDID
trabecular bone by Micro-CT (osteoporosis): no significant change was observed
